Test [1] concerns the target Influenza virus A/Brisbane/59/2007 (H1N1) (Influenza A virus A/Brisbane/59/2007 (H1N1)). Kind of test: cell-based or functional assay.
The target in test [2] is Influenza virus A/California/7/2009pdm (H1N1pdm) (Influenza A virus A/California/7/2009pdm (H1N1pdm)). As to the kind of experiment: cell-based or functional assay.
Test [3] has as its target Influenza virus A/Indonesia/5/2005/PR8-IBCDC-RG2 (H5N1) (Influenza A virus A/Indonesia/5/2005/PR8-IBCDC-RG2 (H5N1)). As to the kind of experiment: cell-based or functional assay.
The target of test [4] is Influenza virus A/Suita/1/2009pdm (H1N1 2009 pandemic) (Influenza A virus A/Suita/1/2009pdm (H1N1pdm)). As to the kind of experiment: cell-based or functional assay.
The target of test [5] is Influenza virus A/Panama/2007/1999 (H3N2) (Influenza A virus A/Panama/2007/1999 (H3N2)). As to the kind of experiment: cell-based or functional assay.
Test [6] concerns the target Influenza virus A/Brisbane/59/2007 (H1N1) (Influenza A virus A/Brisbane/59/2007 (H1N1)). As to the kind of experiment: ELISA on coated viral particles. For orientation: ELISA stands for enzyme-linked immunosorbent assay.
Test [7] addresses Influenza virus A/California/7/2009pdm (H1N1pdm) (Influenza A virus A/California/7/2009pdm (H1N1pdm)). Kind of test: ELISA on coated viral particles.
The target in test [8] is Influenza virus A/New Caledonia/20/1999 (H1N1) (Influenza A virus A/New Caledonia/20/1999 (H1N1)). As to the kind of experiment: ELISA on coated viral particles.
Test [9] concerns the target Influenza virus A/Panama/2007/1999 (H3N2) (Influenza A virus A/Panama/2007/1999 (H3N2)). As to the kind of experiment: ELISA on coated viral particles.

Where only a bound is given, the exact number is not on record here.

B1: Group 43 representative clone F081-007, Fab-PP-type antibody (Fab, V domains shown)
VH: QVQLQQSGAEVKKPGSSVKVSCKASGGIFRKNAISWVRQAPGQGLEWMGGISAIFGTANYAQKFQGRVTITADESSNTVYMDLSRLRSEDTAIYYCASHPTYHFDKSGYRFDSWGQGTLVTVSS
VL: QSVLTQPPSVSAAPGQKVTISCSGSSSNIGNNYVSWYQQLPGTAPKLLIYDNNKRPSGIPDRFSGSKSGTSATLGITGLQTGDEADYYCGTWDSSLSAGVFGGGTKLTVLG
As for B1, the HI activity in test [1] and in [2] was above 160 µg/mL each time. Besides, the Neutralizing activity (%) at 100 µg/ml in test [1] is 100%; in test [3], 97.6%; in test [4] it was 100%; in test [5] it was 11.6%. Further, the Neutralizing activity (%) at 250 µg/ml amounted to 100% in test [1], 98.8% in [3], 100% in test [4] and 13.7% in test [5].

B2: Group 2 representative clone F082-220, Fab-PP-type antibody (Fab, V domains shown)
VH: QVQLVQSGAEVKKPGSSVKVSCKASGGIFRSNAVSWVRQAPGQGLEWMGGIIAIFGTPKYAQKFQGRVTITADESTSTVYMELSGLRYEDTAVYYCARGPNYYESYFDYWGQGTLVTVSS
VL: DIVMTQSPPSLSASVGDRVTITCRASQGISNYLAWYQQKPGKAPKLLIFGASTLHSGVSSRFSGSGSGPDFTLTISSLQPEDAATYYCQKYHSAPLTFGGGTKVEMK
On to B2, for which the HI activity in [1] and in test [2] was above 160 µg/mL each time. Also, the Neutralizing activity (%) at 100 µg/ml in [1] is 100%; in [3] it was 90.6%; in test [4] it was 85.3%; in test [5], 3.4%. Moreover, the Neutralizing activity (%) at 250 µg/ml in [1] is 100%; in test [3], 97.1%; in [4], 97.7%; in test [5], 34.2%.

B3: Group 64 representative clone F083-301, Fab-PP-type antibody (Fab, V domains shown)
VH: QVQLVQSGAEVKKPGSSVKVSCKASGGIFNSNAISWVRQAPGQGLEWMGGIIGIFGTANYAQKFQGRVTIAADQSTNTVFMELSSLTSEDTAVYFCARSRGYSFGYGTDYFDYWGQGTLVTVSS
VL: DIVMTQSPSTLSASVGDRVTITCRASQSISSWLAWYQQAPGKAPKLLIYEASKLQSGVPSRFSATGSGTEFTLTIASLQPEDFAIYYCQHYEAYPFSFGPGTKLDVK
For B3, the HI activity in test [1] and in [2] was above 160 µg/mL throughout. Moreover, the Neutralizing activity (%) at 100 µg/ml is 86.2% in test [1], 40.6% in test [3], 83.6% in test [4] and -2.7% in test [5]. For the same molecule, the Neutralizing activity (%) at 250 µg/ml was 92.1% in [1], 47.1% in test [3], 81.3% in test [4] and 7.5% in [5].

B4: Group 36 representative clone F082-243, Fab-PP-type antibody (Fab, V domains shown)
VH: QVQLQQSGAEVKKPGSSVKVSCKASGGIFRKNAISWVRQAPGQGLEWMGGIIAIFGTANYAQKFQGRVTITADDSTNTVYMELTSLRYEDTAVYYCARGPNYYENYFDFWGQGTLVTVSS
VL: EIVLTQSPSSLSASLRDTVTITCRTSQAITNYLAWYQQRPGKAPKLLIYAASVLQSGVPSRFSGSGSGTDFTLTISSLQPEDFATYYCQKYDSAPYTFGQGTKLEIK
For B4, the HI activity in [1] and in [2] was above 160 µg/mL throughout. Further, the Neutralizing activity (%) at 100 µg/ml stood at 84.2% in test [1], 50.6% in test [3], 97.7% in [4] and 7.5% in test [5]. Besides, the Neutralizing activity (%) at 250 µg/ml is 94.1% in [1], 52.9% in test [3], 85.9% in test [4] and -2.7% in [5].

B5: Group 65 representative clone F083-366, Fab-PP-type antibody (Fab, V domains shown)
VH: QVQLVQSGSEVKKPGSSVKVSCKASRGIFSSYAISWVRQAPGQGLEWMGAVIPMFGTLKYAENFQGRITISADKSMSAAYMELSSLRSEDTAVYYCARNYYGSGTYFNDAFDIWGQGTMVTVSS
VL: QSVLTQPPSGSGAPGQRVTISCTGGNSNIGAGYDVNGYQQLPGKAPKLLIYGNNNRPSGVPDRFSGSKSGTSASLAITGLQVEDEAHYYCQSYDNGLSGSVFGGGTQLTVLG
As to B5, the HI activity in [1] and in test [2] was above 160 µg/mL throughout. For the same molecule, the Neutralizing activity (%) at 100 µg/ml in test [1] is 96.1%; in [3], -0.8%; in test [4] it was 13.5%; in test [5], -13%. For the same molecule, the Neutralizing activity (%) at 250 µg/ml in test [1] was 98%; in test [3] it was -3.9%; in [4] it was 19.2%; in [5], -6.8%.

B6: Group 44 representative clone F081-008, Fab-PP-type antibody (Fab, V domains shown)
VH: QVQLVQSGAEVKKPGSSVKVSCKASGGTFSSFSTYTISWVRQAPGQGLEWMGRSIPLLGITNYAQKFQGRVTITADISTSTAYMELSSLRSEDTAVYYCARYQSSDYYNSEYFQHWGQGTLVTVSS
VL: EIVLTQSPGTLSLSLGERVTLSCRASQNVGTNYLAWYQQKPGQAPRLLIYGASSRATGVPDRFSGSGSGTDFTLTISRLAPEDFAVYYCQQYSSSPLTFGGGTKLEIK
B6: the HI activity in test [1] and in [2] was above 160 µg/mL in each case. In addition, the Neutralizing activity (%) at 100 µg/ml in [1] turned out to be 100%; in [3], 48.8%; in test [4], 95.3%; in [5] it was 3.4%. Moreover, the Neutralizing activity (%) at 250 µg/ml in test [1] is 100%; in [3], 56.5%; in test [4], 97.7%; in [5], 15.8%.

B7: Group 55 representative clone F083-305, Fab-cp3-type antibody (Fab, V domains shown)
VH: EVQLVESGAEVKKPGSSVKVSCKASGSIFSNYAISWVRQAPGQGLEWMGGIVPMFGTTRFAQKFQGRVTITADESRSTAYMELNNLISEDTAVYYCARAPLIYNWYFDLWGRGTLVTVSS
VL: EIVLTQSPSFVSASVGDRVSITCRASQGISSWLAWYQQKPGKAPRLLIYGASNLQSGVPSRFSGSGSGTDYTLTINSLQPEDFATYYCQQARTFPVTFGQGTKLEIK
Regarding B7, the Binding activity (absorbance at 492 nm) in test [6] was found to be 2.88; in [7], 1.29; in test [8], 3.07; in [9] it was 0.15.

B8: Group 42 representative clone F083-249, Fab-cp3-type antibody (Fab, V domains shown)
VH: QVQLVQSGSEVKKPGSSVKVSCKASGVTFSSYAISWVRQAPGQGLEWMGGISPMFGTTRYAQKFQGRVTITADESTRTGFMELSSLRSGDTAVYYCARSPTYYPGALDMWGQGTTVTVSS
VL: DVVMTQSPSLLSASVGDRVTITCRASQAIANFVSWFQQKPGEAPKSLIHAASTLQGGVPPRFSGSGYGAVFTLTITNLQPEDFATYFCQQYNSLPFTFGPGTDVEVR
Turning to B8, the Binding activity (absorbance at 492 nm) in test [6] is 3.02; in [7] it was 2.38; in [8], 3.13; in test [9] it was 1.15.

(Values after US20160200799A1.)
